First the molecules themselves.
B1: Retinoblastoma-associated protein (Homo sapiens), P06400 (parent)
chain: MPPKTPRKTAATAAAAAAEPPAPPPPPPPEEDPEQDSGPEDLPLVRLEFEETEEPDFTALCQKLKIPDHVRERAWLTWEKVSSVDGVLGGYIQKKKELWGICIFIAAVDLDEMSFTFTELQKNIEISVHKFFNLLKEIDTSTKVDNAMSRLLKKYDVLFALFSKLERTCELIYLTQPSSSISTEINSALVLKVSWITFLLAKGEVLQMEDDLVISFQLMLCVLDYFIKLSPPMLLKEPYKTAVIPINGSPRTPRRGQNRSARIAKQLENDTRIIEVLCKEHECNIDEVKNVYFKNFIPFMNSLGLVTSNGLPEVENLSKRYEEIYLKNKDLDARLFLDHDKTLQTDSIDSFETQRTPRKSNLDEEVNVIPPHTPVRTVMNTIQQLMMILNSASDQPSENLISYFNNCTVNPKESILKRVKDIGYIFKEKFAKAVGQGCVEIGSQRYKLGVRLYYRVMESMLKSEEERLSIQNFSKLLNDNIFHMSLLACALEVVMATYSRSTSQNLDSGTDLSFPWILNVLNLKAFDFYKVIESFIKAEGNLTREMIKHLERCEHRIMESLAWLSDSPLFDLIKQSKDREGPTDHLESACPLNLPLQNNHTAADMYLSPVRSPKKKGSTTRVNSTANAETQATSAFQTQKPLKSTSLSLFYKKVYRLAYLRLNTLCERLLSEHPELEHIIWTLFQHTLQNEYELMRDRHLDQIMMCSMYGICKVKNIDLKFKIIVTAYKDLPHAVQETFKRVLIKEEEYDSIIVFYNSVFMQRLKTNILQYASTRPPTLSPIPHIPRSPYKFPSSPLRIPGGNIYISPLKSPYKISEGLPTPTKMTPRSRILVSIGESFGTSEKFQKINQMVCNSDRVLKRSAEGSNPPKPLKKLRFDIEGSDEADGSKHLPGESKFQQKLAEMTSTRTRMQKQKMNDSMDTSNKEEK
partner: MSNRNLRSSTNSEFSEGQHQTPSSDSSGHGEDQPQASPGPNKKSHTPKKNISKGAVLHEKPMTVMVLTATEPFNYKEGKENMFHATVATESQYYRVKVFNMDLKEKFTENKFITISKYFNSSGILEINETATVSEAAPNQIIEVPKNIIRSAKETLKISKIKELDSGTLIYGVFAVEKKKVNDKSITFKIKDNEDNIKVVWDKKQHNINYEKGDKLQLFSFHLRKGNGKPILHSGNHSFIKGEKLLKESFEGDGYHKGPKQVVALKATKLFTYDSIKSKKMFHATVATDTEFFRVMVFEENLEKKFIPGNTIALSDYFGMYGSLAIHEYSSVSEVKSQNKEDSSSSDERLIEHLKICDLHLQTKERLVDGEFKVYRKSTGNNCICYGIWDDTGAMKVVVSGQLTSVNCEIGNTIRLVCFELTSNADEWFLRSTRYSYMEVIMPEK

The variants in this assay derive from B1. The note with it: with ifi2_mouse Ifi202, Q9R002.
Take C706F: the “effect of a mutation on the interaction” value was “decreasing interaction”.

These data come from IntAct's records for PubMed 7890747.
